Where a chain is given by its changes, count along the chain named. Names may count otherwise.
Assays:
[1] = molecular target: the molecule itself; test: SEC; Superose 6 Increase 10/300 GL; 50 mM Tris-HCl (pH 8.0), 300 mM NaCl, 10 mM MgCl2; oligomeric state calculated from elution volumes of proteins of known size
[2] = molecular target: the molecule itself; test: not stated; data not shown; KpUGP in HEPES-NaOH (pH 8.0) buffer
[3] = molecular target: the molecule itself; test: SEC; Superose 6 Increase 10/300 GL; 50 mM Tris-HCl (pH 8.0), 300 mM NaCl, 10 mM MgCl2; oligomeric state calculated from elution volumes of proteins of known size; remark: listed apart in the source
[4] = molecular target: the molecule itself; test: SEC; Superdex 200 10/300 GL (KpUGP active site mutants); 50 mM Tris-HCl (pH 8.0), 300 mM NaCl, 10 mM MgCl2
[5] = molecular target: the molecule itself; test: native gel or EMSA; blue native PAGE, 4.5 µg of each protein on a uniform 12% native gel, followed by in-gel activity staining

B1: Klebsiella pneumoniae UDP-glucose pyrophosphorylase (galU gene product), wild type (enzyme, UniProt A6TAK9 1-300, looked up)
chain: MAALNSKVRKAVIPVAGLGTRMLPATKAIPKEMLPLVDKPLIQYVVNECIAAGITEIVLVTHSSKNSIENHFDTSFELEAMLEKRVKRQLLEEVQSICPPHVTIMQVRQGLAKGLGHAVLCAHPVVGDEPVAVILPDVILDEYESDLSRDNLAEMISRFDETGASQIMVEPVEDVTAYGVVDCKGESLKPGESVPMVGVVEKPKADVAPSNLAVVGRYVLSADIWPLLAKTPPGAGDEIQLTDAIDMLIEKETVEAYHMKGKSHDCGNKLGYMQAFVEYGIRHKTLGDDFKAWLETAVAK
notes: UDP-glucose pyrophosphorylase (galU gene product) of K. pneumoniae subsp. pneumoniae type strain DSM 30104 (ATCC 13883, NCTC 9633), cloned from genomic DNA; UniProt entry printed for the AlphaFold query; 34.6 kDa with tag; no cleavage of the tag is described; Also made from pETDuet-1 with the same oligomeric state; also called KpUGP; KpUGP wt; not shown: Strep-tagII, N-terminal, kept
**Q.** How did the “stoichiometry N” value [1] turn out when B1 was run?
**A.** 4.5

**Q.** And the “stoichiometry N” value [2]?
**A.** 4

B2: KpUGP E238R (enzyme)
chain: B1 chain with E238R
notes: UDP-glucose pyrophosphorylase (galU gene product) of K. pneumoniae DSM 30104; mutant of Strep-KpUGP that mimics R237 of KpGalF; tag as in m1; no cleavage described
**Q.** B2 was tested. Which “stoichiometry N” value [3] did it give?
**A.** 3.1

B3: KpUGP E32A (enzyme)
chain: B1 chain with E32A
notes: UDP-glucose pyrophosphorylase (galU gene product) of K. pneumoniae DSM 30104; active site mutant of Strep-KpUGP; tag as in m1; the discussion speaks only of the mutant of E32; also called E32 mutant
**Q.** For B3, which “stoichiometry N” value [4] is on record?
**A.** 2

B4: KpUGP D38N (enzyme)
chain: B1 chain with D38N
notes: UDP-glucose pyrophosphorylase (galU gene product) of K. pneumoniae DSM 30104; mutant of Strep-KpUGP; tag as in m1; no cleavage described
**Q.** B4 was tested. Which “stoichiometry N” value [5] did it give?
**A.** 4

**Q.** What about the “stoichiometry N” value [1] of the same protein?
**A.** 4.2

B5: KpUGP K10R (enzyme)
chain: B1 chain with K10R
notes: as for B4
**Q.** Which results are given for B5?
**A.** stoichiometry N [5]: 4; stoichiometry N [1]: 4.5

B6: KpUGP D38A (enzyme)
chain: B1 chain with D38A
notes: as for B4
**Q.** B6 was tested. Which “stoichiometry N” value [5] did it give?
**A.** 4

**Q.** And the “stoichiometry N” value [1]?
**A.** 4.1

B7: Klebsiella pneumoniae GalF (galF gene product), wild type (natural protein, UniProt Q48447 1-298, looked up)
chain: MNMANLKAVIPVAGLGMHMLPATKAIPKEMLPIVDKPMIQYIVDEIVAAGIKEIVLVTHSSKNAVENHFDTSYELEALLEQRVKRQLLAEVQAICPPGVTIMNVRQAQPLGLGHSILCARPVVGDNPFVVVLPDIILDGGTADPLRYNLAAMIARFNETGRSQVLAKRMPGDLSEYSVIQTKEPMVAEGQVARIVEFIEKPDEPQTLDSDLMAVGRYVLSADIWAELERTEPGAWGRIQLTDAIAELAKKQSVDAMLMTGESYDCGKKMGYMQAFVTYGMRNLKEGAKFRESIKKLLA
notes: GalF (galF gene product) of K. pneumoniae subsp. pneumoniae type strain DSM 30104 (ATCC 13883, NCTC 9633), cloned from genomic DNA into MCS1 of pETDuet-1; UniProt entry printed for the AlphaFold query; 34.3 kDa with tag; no cleavage of the tag is described; also called KpGalF; KpGalF wt
**Q.** How did the “stoichiometry N” value [3] turn out when B7 was run?
**A.** 1.9

B8: KpGalF M17T/H18R/S115A/S177G/R237E (natural protein)
chain: B7 chain with M17T, H18R, S115A, S177G, R237E
notes: GalF (galF gene product) of K. pneumoniae DSM 30104; mutant of His-KpGalF; also called KpGalF quintuple mutant; quintuple revertant mutant
**Q.** How did the “stoichiometry N” value [3] turn out when B8 was run?
**A.** 1.7

Source: PMC11796359, “Identification and characterization of the functional tetrameric UDP-glucose pyrophosphorylase from Klebsiella pneumoniae” (mBio, 2024)
